Source: patent US20230357838, “Double-Stranded DNA Deaminases and Uses Thereof” (New England Biolabs, Inc., published 2023)

T1: MGYPDa23 (unidentified)
T1 chain: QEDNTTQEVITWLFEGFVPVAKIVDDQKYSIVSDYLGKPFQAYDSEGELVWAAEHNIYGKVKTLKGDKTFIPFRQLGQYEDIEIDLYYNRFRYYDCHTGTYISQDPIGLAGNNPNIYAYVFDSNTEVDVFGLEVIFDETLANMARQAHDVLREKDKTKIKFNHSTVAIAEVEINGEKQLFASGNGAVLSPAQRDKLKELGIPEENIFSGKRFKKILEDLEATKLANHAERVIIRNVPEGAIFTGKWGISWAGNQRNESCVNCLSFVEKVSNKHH

T2: LbsDa01 (Simiaoa sunii)
T2 chain: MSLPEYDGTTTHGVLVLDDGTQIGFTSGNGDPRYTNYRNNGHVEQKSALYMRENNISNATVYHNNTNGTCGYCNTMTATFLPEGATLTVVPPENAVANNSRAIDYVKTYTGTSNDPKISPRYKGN

T3: RaDa01 (Ruminococcus sp.)
T3 chain: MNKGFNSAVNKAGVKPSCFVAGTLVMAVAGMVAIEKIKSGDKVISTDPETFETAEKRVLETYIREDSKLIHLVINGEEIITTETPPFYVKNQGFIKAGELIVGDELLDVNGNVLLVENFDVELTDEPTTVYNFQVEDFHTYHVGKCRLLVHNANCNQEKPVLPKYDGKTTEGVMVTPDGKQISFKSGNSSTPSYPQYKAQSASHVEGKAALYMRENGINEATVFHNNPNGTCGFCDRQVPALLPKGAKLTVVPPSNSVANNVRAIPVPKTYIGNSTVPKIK

T4: d38_MGYPDa829 (unidentified)
T4 chain: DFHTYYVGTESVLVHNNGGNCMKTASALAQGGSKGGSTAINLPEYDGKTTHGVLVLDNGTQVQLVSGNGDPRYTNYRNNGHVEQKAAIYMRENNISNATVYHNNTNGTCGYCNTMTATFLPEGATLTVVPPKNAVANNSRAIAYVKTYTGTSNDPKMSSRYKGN

T5: MGYPDa20 (unidentified)
T5 chain: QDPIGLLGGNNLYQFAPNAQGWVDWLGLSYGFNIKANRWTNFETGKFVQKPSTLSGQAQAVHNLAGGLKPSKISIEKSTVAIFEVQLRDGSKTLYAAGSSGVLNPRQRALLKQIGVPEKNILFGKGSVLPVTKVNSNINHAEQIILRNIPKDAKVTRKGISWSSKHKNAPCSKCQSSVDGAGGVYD

T6: CrDa01 (Clostridium roseum)
T6 chain: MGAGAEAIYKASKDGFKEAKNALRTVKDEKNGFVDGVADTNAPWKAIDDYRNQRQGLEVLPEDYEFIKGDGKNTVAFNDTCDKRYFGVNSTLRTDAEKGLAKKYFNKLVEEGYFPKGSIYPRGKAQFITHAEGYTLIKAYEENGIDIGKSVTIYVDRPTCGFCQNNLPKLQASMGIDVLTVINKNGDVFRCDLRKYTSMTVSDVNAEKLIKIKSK

T7: AvDa02 (Actinomyces viscosus)
T7 chain: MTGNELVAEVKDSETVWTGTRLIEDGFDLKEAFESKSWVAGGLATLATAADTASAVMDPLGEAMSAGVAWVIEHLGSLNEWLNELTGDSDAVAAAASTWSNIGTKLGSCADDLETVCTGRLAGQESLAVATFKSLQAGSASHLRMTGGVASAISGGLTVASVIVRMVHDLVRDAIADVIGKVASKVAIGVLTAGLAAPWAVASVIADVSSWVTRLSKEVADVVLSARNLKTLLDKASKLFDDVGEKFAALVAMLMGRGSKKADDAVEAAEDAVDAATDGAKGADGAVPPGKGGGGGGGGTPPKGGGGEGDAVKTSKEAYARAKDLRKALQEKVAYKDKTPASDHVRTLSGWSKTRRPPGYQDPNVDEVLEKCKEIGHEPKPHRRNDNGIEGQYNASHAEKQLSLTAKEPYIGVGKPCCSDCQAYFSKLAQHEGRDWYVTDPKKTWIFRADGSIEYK


Assays:
Test in all cases: cell-based or functional assay
MGYPDa23 = biological target: T1, MGYPDa23
LbsDa01 = biological target: T2, LbsDa01
RaDa01 = biological target: T3, RaDa01
d38_MGYPDa829 = biological target: T4, d38_MGYPDa829
MGYPDa20 = biological target: T5, MGYPDa20
MGYPDa01 = MGYPDa01 (unidentified)
CrDa01 = biological target: T6, CrDa01
AvDa02 = biological target: T7, AvDa02

Chain of MGYPDa01 (unidentified) (chain, as listed by the source): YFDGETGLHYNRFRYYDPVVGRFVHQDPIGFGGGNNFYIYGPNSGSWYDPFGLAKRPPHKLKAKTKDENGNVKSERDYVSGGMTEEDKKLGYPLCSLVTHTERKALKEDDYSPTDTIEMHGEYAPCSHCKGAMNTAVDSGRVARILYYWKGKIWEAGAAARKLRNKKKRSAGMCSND

| Binder | activity (MGYPDa23) [fraction deaminated] | activity (LbsDa01) [fraction deaminated] | activity (RaDa01) [fraction deaminated] | activity (d38_MGYPDa829) [fraction deaminated] | activity (MGYPDa20) [fraction deaminated] | activity (MGYPDa01) [fraction deaminated] | activity (CrDa01) [fraction deaminated] | activity (AvDa02) [fraction deaminated] |
| --- | --- | --- | --- | --- | --- | --- | --- | --- |
| 40 bp 5caC oligo (dsDNA, 5caC at all four C of the listed strand sites) DNA 1: AAATTTAATTATAAAACGATCGACGACGAAATAATAAAAA DNA 2: TTTTTATTATTTCGTCGTCGATCGTTTTATAATTAAATTT | 0.02 | 0.1 | 0.47 | 0.1 | – | – | – | – |
| 40 bp control C oligo (dsDNA) DNA 1: AAATTTAATTATAAAACGATCGACGACGAAATAATAAAAA DNA 2: TTTTTATTATTTCGTCGTCGATCGTTTTATAATTAAATTT | 0.97 | 0.92 | 0.98 | 0.88 | 0.59 | 0.12 | 0.98 | – |
| 40 bp 5fC oligo (dsDNA, 5fC at all four C of the listed strand sites) DNA 1: AAATTTAATTATAAAACGATCGACGACGAAATAATAAAAA DNA 2: TTTTTATTATTTCGTCGTCGATCGTTTTATAATTAAATTT | 0.23 | 0.14 | 0.66 | 0.12 | – | – | 0.09 | 0.08 |
